The target in data set [1] is T1, Roquin-1 ROQ domain (SPR, EMSA wild type) (UniProt Q4VGL6 171-326).
T1 sequence: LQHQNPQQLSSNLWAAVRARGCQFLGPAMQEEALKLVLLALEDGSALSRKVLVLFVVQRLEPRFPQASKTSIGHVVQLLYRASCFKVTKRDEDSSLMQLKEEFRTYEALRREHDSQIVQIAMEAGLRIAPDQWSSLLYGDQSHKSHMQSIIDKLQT
The data set can be described thus: SPR; 2 mM Mg2+, 10 C; SPR: 10 mM HEPES pH 7.4, 150 mM NaCl, 2 mM MgCl2, 0.005% Tween 20, 10 C, ROQ immobilized; EMSA: 20 mM HEPES pH 7.4, 50 mM NaCl, 1 mM MgCl2, 1 mM DTT, 1 ug/ul BS. (Surface plasmon resonance follows binding to a sensor surface in real time, without labels.)

The next data set has as its target T2, Roquin-1 ROQ (171-326) (UniProt Q4VGL6 171-326).
T2 sequence: T1 sequence
Put plainly: NMR; 298 K; SPR: 10 mM HEPES pH 7.4, 150 mM NaCl, 2 mM MgCl2, 0.005% Tween 20, 10 C, ROQ immobilized; EMSA: 20 mM HEPES pH 7.4, 50 mM NaCl, 1 mM MgCl2, 1 mM DTT, 1 ug/ul BS. On the technique in general: Mobility shift assays separate free from complexed probe on a gel.

In a further data set the target is T3, Roquin-1 N-term (UniProt Q4VGL6 2-440).
T3 sequence: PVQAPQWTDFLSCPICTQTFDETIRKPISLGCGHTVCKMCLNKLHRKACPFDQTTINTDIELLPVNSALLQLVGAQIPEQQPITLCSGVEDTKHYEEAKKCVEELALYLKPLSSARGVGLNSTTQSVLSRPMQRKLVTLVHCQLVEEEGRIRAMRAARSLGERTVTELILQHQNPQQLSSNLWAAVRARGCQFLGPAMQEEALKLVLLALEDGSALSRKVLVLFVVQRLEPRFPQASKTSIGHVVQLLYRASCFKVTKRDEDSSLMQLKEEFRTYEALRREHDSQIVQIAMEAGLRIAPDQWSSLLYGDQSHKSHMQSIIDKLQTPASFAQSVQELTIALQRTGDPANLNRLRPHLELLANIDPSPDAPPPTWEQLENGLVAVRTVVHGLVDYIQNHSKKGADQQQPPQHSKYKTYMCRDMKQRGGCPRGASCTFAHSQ
The data set can be described thus: EMSA; SPR: 10 mM HEPES pH 7.4, 150 mM NaCl, 2 mM MgCl2, 0.005% Tween 20, 10 C, ROQ immobilized; EMSA: 20 mM HEPES pH 7.4, 50 mM NaCl, 1 mM MgCl2, 1 mM DTT, 1 ug/ul BS.

Another data set addresses T4, Roquin-1 ROQ (147-326) (UniProt Q4VGL6 147-326).
T4 sequence: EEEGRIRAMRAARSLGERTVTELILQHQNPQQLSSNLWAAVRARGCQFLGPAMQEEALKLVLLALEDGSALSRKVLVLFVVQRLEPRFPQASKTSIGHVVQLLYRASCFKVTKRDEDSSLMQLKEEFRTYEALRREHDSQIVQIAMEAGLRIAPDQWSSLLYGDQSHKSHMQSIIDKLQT
Described as above.

Regarding UCCACACCCUUCUAGGUGCUGG (structured_RNA) [Ox40 ADE-like Mut2 (G9C)], the binding result in data set [1] was “no binding”.
By Kd is commonly meant a measure of binding affinity in units of concentration. A high value points to lower affinity. In the case of ACAUGUUUUCUGUGAAAACGGAG (structured_RNA) [Tnf CDE SL], the Kd in data set [1] turned out to be 42 ± 19 nM.
In the case of UGACUGCGUUUUAGGAGUUA (structured_RNA) [SELEX-derived ADE SL], the binding result in the data set with Roquin-1 ROQ (171-326) is on record as “binds”.
For the molecule UCCACACCGUACGAGGUGCUGG (structured_RNA) [Ox40 ADE-like Mut3 (U11A,U13G)], the binding result in data set [1] is “no binding”.
For UCCACACCGUUCUAGGUGCUGG (structured_RNA) [Ox40 ADE-like SL], binding in data set [1] was characterised by a dissociation constant (Kd) of 81 ± 22 nM.
On the same count and under the same terms, with UCCACACAGUUCUAUGUGCUGG (structured_RNA) [Ox40 ADE-like Mut4 (C8A,G15U)] the figure was 234 ± 63 nM.
Take CUAUGUAUGCUAUGCAUACUACC (structured_RNA) [Ox40 CDE-like SL]: the binding result in the data set with Roquin-1 N-term and with Roquin-1 ROQ (147-326) was “binds” throughout.

Values taken from article PMC5603727.
